# Values joined by “and” are separate entries in the source; they are usually repeats but may differ in a detail not shown here. Identical values can stand only once.
# T1: Hexim1-A12m (human) (UniProt O94992)
# T1 sequence: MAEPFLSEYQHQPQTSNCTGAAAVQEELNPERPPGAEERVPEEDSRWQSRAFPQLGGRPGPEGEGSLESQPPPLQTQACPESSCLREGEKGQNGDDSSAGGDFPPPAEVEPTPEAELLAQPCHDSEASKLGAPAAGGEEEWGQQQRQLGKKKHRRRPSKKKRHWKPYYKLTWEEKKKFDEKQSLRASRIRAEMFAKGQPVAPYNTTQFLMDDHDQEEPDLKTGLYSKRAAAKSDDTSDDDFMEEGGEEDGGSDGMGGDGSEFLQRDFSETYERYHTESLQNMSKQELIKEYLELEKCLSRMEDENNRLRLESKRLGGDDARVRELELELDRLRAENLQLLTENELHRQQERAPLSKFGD
# T2: Hexim1-A3m (human) (UniProt O94992)
# T2 sequence: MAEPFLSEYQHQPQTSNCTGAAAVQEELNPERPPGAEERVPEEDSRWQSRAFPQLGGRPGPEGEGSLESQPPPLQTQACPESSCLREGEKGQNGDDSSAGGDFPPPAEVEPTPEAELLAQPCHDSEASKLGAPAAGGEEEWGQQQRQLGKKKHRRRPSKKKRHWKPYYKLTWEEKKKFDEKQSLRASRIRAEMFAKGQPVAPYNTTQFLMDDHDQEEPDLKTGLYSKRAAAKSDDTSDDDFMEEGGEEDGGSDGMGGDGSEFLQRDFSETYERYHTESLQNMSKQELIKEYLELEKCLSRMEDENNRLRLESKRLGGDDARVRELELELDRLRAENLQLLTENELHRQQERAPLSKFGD
# T3: Hexim1 BRARM1 (human, UniProt O94992 141-159)
# T3 chain: WGQQQRQLGKKKHRRRPSK
# B1: Monomeric Hexim1 BR-L-AR (aa 142-253) (domain or fragment, human)
# chain: GGQQQRQLGKKKHRRRPSKKKRHWKPYYKLTWEEKKKFDEKQSLRASRIRAEMFAKGQPVAPYNTTQFLMDDHDQEEPDLKTGLYSKRAAAKSDDTSDDDFMEEGGEEDGGSD
# notes: non-native glycine that remains at the N-terminus after TEV protease cleavage; Hexim1, human, residues 142-253: Basic Region, linker with PYNT motif, Acidic Region; 15N-labelled as the reporter in the PRE NMR experiments; unlabelled in NativePAGE and mass photometry; also called Hexim1 central region construct; not shown: His6, N-terminal, cleaved; MBP, N-terminal, cleaved
# B2: Hexim1 BR-L-AR(S226C^MTSL) (domain or fragment, human)
# chain: GGQQQRQLGKKKHRRRPSKKKRHWKPYYKLTWEEKKKFDEKQSLRASRIRAEMFAKGQPVAPYNTTQFLMDDHDQEEPDLKTGLYCKRAAAKSDDTSDDDFMEEGGEEDGGSD
# modifications: MTSL nitroxide spin label on C226
# notes: non-native glycine that remains at the N-terminus of BR-L-AR after TEV protease cleavage; Hexim1, human, residues 142-253 (BR-L-AR) with S226C; not shown: His6, N-terminal, cleaved; MBP, N-terminal, cleaved
# B3: Hexim1 BR-L-AR(S233C^MTSL) (domain or fragment, human)
# chain: GGQQQRQLGKKKHRRRPSKKKRHWKPYYKLTWEEKKKFDEKQSLRASRIRAEMFAKGQPVAPYNTTQFLMDDHDQEEPDLKTGLYSKRAAAKCDDTSDDDFMEEGGEEDGGSD
# modifications: MTSL nitroxide spin label on C233
# notes: non-native glycine that remains at the N-terminus of BR-L-AR after TEV protease cleavage; Hexim1, human, residues 142-253 (BR-L-AR) with S233C; 14N in the inter-only experiment; not shown: His6, N-terminal, cleaved; MBP, N-terminal, cleaved
# B4: Hexim1 BR-L-AR(S237C^MTSL) (domain or fragment, human)
# chain: GGQQQRQLGKKKHRRRPSKKKRHWKPYYKLTWEEKKKFDEKQSLRASRIRAEMFAKGQPVAPYNTTQFLMDDHDQEEPDLKTGLYSKRAAAKSDDTCDDDFMEEGGEEDGGSD
# modifications: MTSL nitroxide spin label on C237
# notes: non-native glycine that remains at the N-terminus of BR-L-AR after TEV protease cleavage; Hexim1, human, residues 142-253 (BR-L-AR) with S237C; not shown: His6, N-terminal, cleaved; MBP, N-terminal, cleaved
# B5: Hexim1 BR-L-AR(A201C^MTSL) (domain or fragment, human)
# chain: GGQQQRQLGKKKHRRRPSKKKRHWKPYYKLTWEEKKKFDEKQSLRASRIRAEMFAKGQPVCPYNTTQFLMDDHDQEEPDLKTGLYSKRAAAKSDDTSDDDFMEEGGEEDGGSD
# modifications: MTSL nitroxide spin label on C201
# notes: non-native glycine that remains at the N-terminus of BR-L-AR after TEV protease cleavage; Hexim1, human, residues 142-253 (BR-L-AR) with A201C; 15N-labelled; not shown: His6, N-terminal, cleaved; MBP, N-terminal, cleaved
# B6: Hexim1 BR-L-AR(S183C^MTSL) (domain or fragment, human)
# chain: GGQQQRQLGKKKHRRRPSKKKRHWKPYYKLTWEEKKKFDEKQCLRASRIRAEMFAKGQPVAPYNTTQFLMDDHDQEEPDLKTGLYSKRAAAKSDDTSDDDFMEEGGEEDGGSD
# modifications: MTSL nitroxide spin label on C183
# notes: non-native glycine that remains at the N-terminus of BR-L-AR after TEV protease cleavage; Hexim1, human, residues 142-253 (BR-L-AR) with S183C; 15N-labelled; not shown: His6, N-terminal, cleaved; MBP, N-terminal, cleaved
# B7: Full-length human Hexim1 protein (aa 1-359) (natural protein)
# chain: GMAEPFLSEYQHQPQTSNCTGAAAVQEELNPERPPGAEERVPEEDSRWQSRAFPQLGGRPGPEGEGSLESQPPPLQTQACPESSCLREGEKGQNGDDSSAGGDFPPPAEVEPTPEAELLAQPCHDSEASKLGAPAAGGEEEWGQQQRQLGKKKHRRRPSKKKRHWKPYYKLTWEEKKKFDEKQSLRASRIRAEMFAKGQPVAPYNTTQFLMDDHDQEEPDLKTGLYSKRAAAKSDDTSDDDFMEEGGEEDGGSDGMGGDGSEFLQRDFSETYERYHTESLQNMSKQELIKEYLELEKCLSRMEDENNRLRLESKRLGGDDARVRELELELDRLRAENLQLLTENELHRQQERAPLSKFGD
# notes: non-native glycine that remains at the N-terminus after TEV protease cleavage; Hexim1, human, aa 1-359; also called Hexim1 dimer; full-length Hexim1; not shown: His6, N-terminal, cleaved; MBP, N-terminal, cleaved
# B8: Hexim1 L-AR-CC dimeric protein (domain or fragment, human, UniProt O94992 171-359, looked up)
# chain: TWEEKKKFDEKQSLRASRIRAEMFAKGQPVAPYNTTQFLMDDHDQEEPDLKTGLYSKRAAAKSDDTSDDDFMEEGGEEDGGSDGMGGDGSEFLQRDFSETYERYHTESLQNMSKQELIKEYLELEKCLSRMEDENNRLRLESKRLGGDDARVRELELELDRLRAENLQLLTENELHRQQERAPLSKFGD
# notes: Hexim1, human; linker (L), Acidic Region (AR) and coiled-coil domain (CC, 254-359); source: E. coli BL21-GOLD(DE3), purified
# What was measured:
# Hexim1-A12m (human) = molecular target: T1, Hexim1-A12m (human); experiment: ITC; conditions: ITC: 20 mM HEPES pH 7.5, 150 mM KCl, 1 mM TCEP, 295 K; NMR: 50 mM Na phosphate pH 6.2, 150 mM KCl, 0.02% NaN3, 5% D2O, 298 K; EMSA: binding buffer (20 mM HEPES …)
# Hexim1-A3m (human) = molecular target: T2, Hexim1-A3m (human); experiment: ITC; conditions: N=0.34; ITC: 20 mM HEPES pH 7.5, 150 mM KCl, 1 mM TCEP, 295 K; NMR: 50 mM Na phosphate pH 6.2, 150 mM KCl, 0.02% NaN3, 5% D2O, 298 K; EMSA: binding buffer (20 mM HEPES …)
# Hexim1 full-length [1] = molecular target: T4, Hexim1 full-length (human, UniProt O94992 1-359); experiment: ITC; conditions: N=1.40; protein in syringe (inferred from N); ITC: 20 mM HEPES pH 7.5, 150 mM KCl, 1 mM TCEP, 295 K; NMR: 50 mM Na phosphate pH 6.2, 150 mM KCl, 0.02% NaN3, 5% D2O, 298 K; EMSA: binding buffer (20 mM HEPES …)
# [2] = molecular target: the molecule itself; experiment: mass photometry; Refeyn TwoMP; freshly purified proteins alone or mixed as complexes, drop-diluted into phosphate-buffered saline pH 7.4 to 40 nM final total protein
# [3] = molecular target: the molecule itself; experiment: paramagnetic relaxation enhancement (PRE) NMR; total interaction experiment: 15N-labelled and MTSL-tagged BR-L-AR alone, captures both intra- and inter-monomer contacts; 15N-1H HSQC, 290.15 K, 600 MHz; 50 mM sodium phosphate pH 6.2, 150 mM KCl
# [4] = molecular target: B1; experiment: paramagnetic relaxation enhancement (PRE) NMR; inter-only experiment: 1:1 mixture of 15N-labelled untagged BR-L-AR (reporter) with 14N-labelled MTSL-tagged BR-L-AR (broadener); 15N-1H HSQC, 290.15 K, 600 MHz; 50 mM sodium phosphate pH 6.2, 150 mM KCl; conditions: both partners purified
# Hexim1 full-length [5] = molecular target: T4, Hexim1 full-length; experiment: ITC; N=0.76; ITC: 20 mM HEPES pH 7.5, 150 mM KCl, 1 mM TCEP, 295 K; NMR: 50 mM Na phosphate pH 6.2, 150 mM KCl, 0.02% NaN3, 5% D2O, 298 K; EMSA: binding buffer (20 mM HEPES); conditions: protein: recombinant; tags: MBP-His6 removed by TEV; non-native N-terminal G remains; chain copies: 2; hairpin with U40U41 and U63 bulges
# Hexim1 NBLA (N-BR-L-AR) = Hexim1 NBLA (N-BR-L-AR) (human, UniProt O94992 1-253); experiment: ITC; N=0.81; ITC: 20 mM HEPES pH 7.5, 150 mM KCl, 1 mM TCEP, 295 K; NMR: 50 mM Na phosphate pH 6.2, 150 mM KCl, 0.02% NaN3, 5% D2O, 298 K; EMSA: binding buffer (20 mM HEPES); conditions: protein: recombinant; hairpin with U40U41 and U63 bulges
# Hexim1 full-length [6] = molecular target: T4, Hexim1 full-length; experiment: ITC; N=0.47; ITC: 20 mM HEPES pH 7.5, 150 mM KCl, 1 mM TCEP, 295 K; NMR: 50 mM Na phosphate pH 6.2, 150 mM KCl, 0.02% NaN3, 5% D2O, 298 K; EMSA: binding buffer (20 mM HEPES); conditions: protein: recombinant; tags: MBP-His6 removed by TEV; non-native N-terminal G remains; chain copies: 2; hairpin
# Hexim1 full-length [7] = molecular target: T4, Hexim1 full-length; experiment: ITC; N=0.49; ITC: 20 mM HEPES pH 7.5, 150 mM KCl, 1 mM TCEP, 295 K; NMR: 50 mM Na phosphate pH 6.2, 150 mM KCl, 0.02% NaN3, 5% D2O, 298 K; EMSA: binding buffer (20 mM HEPES); conditions: protein: recombinant; tags: MBP-His6 removed by TEV; non-native N-terminal G remains; chain copies: 2; hairpin
# Hexim1 BR-L-AR = Hexim1 BR-L-AR (human, UniProt O94992 142-253); experiment: NMR; ITC: 20 mM HEPES pH 7.5, 150 mM KCl, 1 mM TCEP, 295 K; NMR: 50 mM Na phosphate pH 6.2, 150 mM KCl, 0.02% NaN3, 5% D2O, 298 K; EMSA: binding buffer (20 mM HEPES); conditions: protein: recombinant; tags: MBP-His6 removed by TEV; non-native N-terminal G; hairpin
# Hexim1 BRARM1 = molecular target: T3, Hexim1 BRARM1; experiment: NMR; Site2 shifted, not Site4; ITC: 20 mM HEPES pH 7.5, 150 mM KCl, 1 mM TCEP, 295 K; NMR: 50 mM Na phosphate pH 6.2, 150 mM KCl, 0.02% NaN3, 5% D2O, 298 K; EMSA: binding buffer (20 mM HEPES); conditions: protein: recombinant; tags: GB1-His6 removed by TEV; non-native N-terminal G; hairpin
molecule,measurement,setting,value
GGAUGUGAGGGCGAUCUGGCUUCGGCCUUCCUCCCUCACCGCUCCA [7SK SL1-p],binding signal (fold tighter than wild-type Hexim1),Hexim1-A12m (human),6
same,Kd,Hexim1-A3m (human),276 nM
7SK SL1-d(api),Kd,Hexim1 full-length [1],96 nM
B1,stoichiometry N,[2],3 and 4
B2,binding result,[3],binds
same,binding result,[4],binds
B3,binding result,[4],binds
B4,binding result,[4],binds
B5,binding result,[3],binds
B6,binding result,[3],binds
B7,stoichiometry N,[2],2
B8,stoichiometry N,[2],2
GGCCAUUGAUCGCCUUCGGGCUGAUCUGGCC (structured_RNA) [7SK SL1-dI],Kd,Hexim1 full-length [5],780 ± 25 nM
same,Kd,Hexim1 NBLA (N-BR-L-AR),83 ± 28 nM
GGCUGUCACCUUCGGGCUAGGCGGCC (structured_RNA) [7SK SL1-dII],Kd,Hexim1 full-length [6],1220 ± 129 nM
GGAUGUGAGGGCGAUCUGGCUUCGGCCUUCCUCCCUCACCGCUCCA (structured_RNA) [7SK SL1-p],Kd,Hexim1 full-length [7],2210 ± 197 nM
"GGCGAUCUGGCUGCGACAUCUGUCACCCCAUUGAUCGCC (structured_RNA) [7SK SL1alt (circular), loop version not stated]",binding result,Hexim1 BR-L-AR,binds
GGCUGCGACAUCUGUCACCUUCGGGCUAGGCGGGUGUCCCC (structured_RNA) [7SK SL1-dIIm],binding result,Hexim1 BRARM1,binds
